This is an account of results in patent US20250064852A1 (University of Pennsylvania, published 2025).

The target in assay [1] is T1, recombinant human CD5 protein conjugated to a polyhistidine (His) tag at the C-terminus (Sino Biologicals); … (human, UniProt P06127 25-372).
T1 construct: Bought reagent; also called recombinant CD5 protein; not shown: C-terminal polyhistidine tag
T1 sequence (looked up): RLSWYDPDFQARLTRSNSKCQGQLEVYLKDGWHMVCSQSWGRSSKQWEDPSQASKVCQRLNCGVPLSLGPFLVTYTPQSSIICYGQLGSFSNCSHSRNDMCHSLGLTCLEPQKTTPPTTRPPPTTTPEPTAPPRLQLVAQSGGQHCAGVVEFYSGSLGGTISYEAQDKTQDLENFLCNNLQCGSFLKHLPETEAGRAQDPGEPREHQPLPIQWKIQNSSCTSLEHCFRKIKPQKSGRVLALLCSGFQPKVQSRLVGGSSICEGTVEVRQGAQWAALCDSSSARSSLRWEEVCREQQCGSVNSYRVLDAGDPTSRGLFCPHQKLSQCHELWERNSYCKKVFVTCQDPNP
Kind of assay: flow cytometry on CAR T cells, APC anti-6x His-tag secondary antibody. An excerpt: General flow cytometry: Cells were resuspended in FACS staining buffer (phosphate buffered saline (PBS)+2% FBS) using one or more of the following antibodies: CD5 (UCHT2; BioLegend; Cat #300612), CD4, CD8 (RPA-T8; BD Biosciences; Cat #563795), CD45RA (L48; BD Biosciences; Cat #347723), CCR7 (G043H7; BioLegend; Cat #353214), PD1 (EH12.1; BD Biosciences; Cat #562516), LAG3 (3DS223H; Invitrogen; Cat #11-2239-42), CD3 (UCHT1; BD Biosciences; Cat #565119 or OKT3; BioLegend; Cat #317334), hCD45 (2D1; BioLegend; Cat #368522), or mCD45. CAR5 was detected by incubating cells with recombinant human CD5 protein conjugated to a polyhistidine (His) tag at the C-terminus (Sino Biologicals; Cat #11027-H08H) followed by an Allophycocyanin (APC) anti-6× His-tag secondary antibody (Abcam; Cat #ab72579). CARmeso was detected using a Biotin-SP goat anti-human F(ab′)₂ antibody (Jackson ImmunoResearch; Cat #109-066-097) followed by an R-Phycoerythrin (PE) streptavidin secondary antibody (Jackson ImmunoResearch; Cat #016-110-084). All changes in overall tumor or T cell counts reflected by absolute cell counts were determined using Flow-Count Fluorospheres (Beckman; Cat #754053). Cell viability was established using ViaKrome 808 Fixable Viability Dye (Beckman; Cat #C36628) and data were acquired on an LSRII Fortessa Cytometer (BD) or CytoFlex LX Flow Cytometer (Beckman). […]

The next assay has as its target T2, human CD5 (human, UniProt P06127 25-495).
T2 construct: whole, on cells; also called primary target CD5
T2 sequence (looked up): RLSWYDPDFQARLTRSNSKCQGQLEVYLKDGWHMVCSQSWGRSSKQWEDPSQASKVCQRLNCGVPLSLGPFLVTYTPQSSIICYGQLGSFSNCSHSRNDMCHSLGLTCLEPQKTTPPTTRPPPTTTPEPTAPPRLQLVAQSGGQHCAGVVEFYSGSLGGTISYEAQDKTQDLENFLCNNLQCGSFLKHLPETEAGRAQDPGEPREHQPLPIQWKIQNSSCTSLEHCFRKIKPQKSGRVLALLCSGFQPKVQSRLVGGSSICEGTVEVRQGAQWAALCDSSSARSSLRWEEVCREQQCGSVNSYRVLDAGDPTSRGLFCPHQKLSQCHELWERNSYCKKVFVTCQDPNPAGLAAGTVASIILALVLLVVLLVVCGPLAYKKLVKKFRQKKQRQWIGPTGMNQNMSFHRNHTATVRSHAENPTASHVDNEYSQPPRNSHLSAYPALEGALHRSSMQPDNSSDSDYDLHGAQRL
Kind of assay: cell microarray (Retrogenix): labelled CAR T cells on fixed HEK293 cells expressing human membrane proteins; library and confirmation screen. An excerpt:
CART5 on- and off-targeting specificity analysis: For a library screen, CD5 KO CART5 cells were fluorescently labelled and screened for binding against fixed HEK293 cells/slides expressing 5828 human plasma membrane proteins and cell surface tethered human secreted proteins+398 human heterodimers in duplicates (18 slide sets, n=2 slides per slide set, 3.2×10⁷ cells/slide). In total, 22 primary hits (duplicate spots) were identified by analyzing fluorescence (Alexa Fluor 647 and ZsGreen1) on ImageQuant. There were a range of intensities (signal to background) from very weak to strong. A confirmation screen was performed by testing Mock KO UTD and CD5 KO CART5 cell binding against all 22 hits in duplicate on new slides. Library and confirmation screens as well as analyses were performed at Retrogenix, Charles River Laboratories.

B1: CD5-17H2L-3054 CAR (anti-CD5 chimeric antigen receptor, clone #17, heavy-to-light chain orientation) (other)
chain: GSEVQLVESGPGLVQPSQSLSITCTVSGFSLTNYDVHWVRQSPGKGLEWLGVIWNYGNTDYNAAFISRLSIRKDSSKSQVFFTMSSLQTPDTAIYYCARNHGDGYYNWYFDVWGTGTTVTVSSGGGGSGGGGSGGGGSNIVLTQSPSSLSESLGGKVTITCKASQDINKYIAWYQYKPGKGPRLLIHYTSTLQPGIPSRFSGSGSGRDYSFSISNLEPEDIATYYCLQYDNLWTFGGGTKLEIKSRTTTPAPRPPTPAPTIASQPLSLRPEACRPAAGGAVHTRGLDFACDIYIWAPLAGTCGVLLLSLVITLYCHMKRGRKKLLYIFKQPFMRPVQTTQEEDGCSCRFPEEEEGGCELTSRVKFSRSADAPAYQQGQNQLYNELNLGRREEYDVLDKRRGRDPEMGGKPRRKNPQEGLYNELQKDKMAEAYSEIGMKGERRRGKGHDGLYQGLSTATKDTYDALHMQALPPR
notes: also called CAR5; anti-CD5 CAR
With B1, the binding result (in assay [1]; with human CD5) was “binds” in each case.
